Laboratory results: paper doi:10.1101/2024.02.06.578578

Molecular target: SkSGLc, SkSGL from Sanguibacter keddieii (KEGG locus tag, Sked_30460) with a C-terminal His6-tag (Sanguibacter keddieii)
Assay: SEC

stoichiometry N: 2
Substance: SkSGLc, SkSGL from Sanguibacter keddieii (KEGG locus tag, Sked_30460) with a C-terminal His6-tag (enzyme)
